Test results: patent publication US20250346646A1, “COMPOUNDS USEFUL TO TREAT METABOLIC DISORDERS” (President and Fellows of Harvard College, priority 2016, published 2025)

Experiments:
Mouse aP2 = target: T1, Mouse aP2 (Mus musculus, UniProt P04117); test: Biacore antibody cross-blocking vs H3; type: binding
T1 construct: 10 His-tag (N, cleaved yes); TEV protease site (N, cleaved yes); made in house; host or cells: E. coli BL21DE3
T1 sequence (P04117 1-132): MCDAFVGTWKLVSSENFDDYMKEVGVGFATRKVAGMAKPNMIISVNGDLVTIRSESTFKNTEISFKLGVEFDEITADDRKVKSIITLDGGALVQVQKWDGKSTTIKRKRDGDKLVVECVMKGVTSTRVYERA
Procedure: FIG. 10B is a table of antibody crossblocking of H3 vs. CA33, CA13, CA15, and CA23 as determined by Biacore analysis. ++=complete blocking; +=partial blocking; −=no crossblocking.
The assay was performed by injecting mouse aP2 in the presence or absence of mouse anti-aP2 IgG over captured rabbit anti-aP2 IgG. Biomolecular interaction analysis was performed using a Biacore T200 (GE Healthcare Bio-Sciences AB). Anti-aP2 rabbit IgG transient supernatants were captured on the immobilized anti-rabbit Fc surfaces (one supernatant per flowcell) using a flow rate of 10 μl/min and a 60 s injection to give response levels above 200RU. Then mouse aP2 at 100 nM, 0 nM or mouse aP2 at 100 nM plus mouse anti-aP2 IgG at 500 nM were passed over for 120 s followed by 120 s dissociation. The surfaces were regenerated with 2×60 s 40 mM HCl and 1×30 s 5 mM NaOH.
In further analysis, epitope identification based on hydrogen-deuterium exchange mass spectrometry experiments, for example, as described by Pandit et al. (2012) J. Mol. Recognit. […] Co-crystallization of the Fab fragments of CA33 and H3 with aP2 (FIG. 10D) was then conducted. […] Despite the partial blocking of H3 by CA33, we observed that there is in fact no direct overlap of their epitopes. Instead, the significant movement of the region around aP2 Phe58 may partially block binding of one antibody by the other in the competition experiments. […]

aP2 knockout mice = test: Glucagon response of aP2 knockout mice given aP2, with or without CA33 preincubation; type: in vivo, mouse; conditions: CA33 preincubated with aP2
From the text: Mouse and rabbit-mouse hybrid monoclonal antibodies raised against the human and mouse aP2 peptides were produced and screened. […] The systemic improvement in glucose metabolism was further verified using a glucose tolerance test (GTT).

- Blocking of H3 binding to aP2 (Mouse aP2): partially blocked
B1: CA33: low-affinity anti-aP2 monoclonal antibody, rabbit-mouse hybrid, produced and purified by UCB; VL Seq. ID 28, VH Seq. ID 41 (antibody, V domains shown)
VH: QSVEESGGRLVTPGTPLTLTCTVSGFSLSTYYMSWVRQAPGKGLEWIGIIYPSGSTYCASWAKGRFTISKASTTVDLKITSPTTEDTATYFCARPDNDGTSGYLSGFGLWGQGTLVTVSS
VL: DVVMTQTPASVSEPVGGTVTIKCQASEDISRYLVWYQQKPGQPPKRLIYKASTLASGVPSRFKGSGSGTDFTLTISDLECDDAATYYCQCTYGTYAGSFFYSFGGGTEVVVE
modifications: Rabbit Ab 909 VH region; Rabbit Ab 909 VL-region
- Glucagon responsiveness of aP2 knockout mice (aP2 knockout mice): prevents that
